{
  "source": "patent US20160311886A1",
  "about": "“Constructs Binding to Phosphatidylserine and Their Use in Disease Treatment and Imaging” (Board of Regents, The University of Texas System, priority 2005, published 2016)",
  "molecules": {"B1": {"name": "3G4: Mouse IgG3 kappa monoclonal antibody to PS and anionic phospholipids; binding mediated by β2-glycoprotein I (antibody, listed as Mus musculus)", "VH": "MGWTWIFILILSVTTGVHSEVQLQQSGPELEKPGASVKLSCKASGYSFTGYNMNWVKQSHGKSLEWIGHIDPYYGDTSYNQKFRGKATLTVDKSSSTAYMQLKSLTSEDSAVYYCVKGGYYGHWYFDVWGAGTTVTVSSATTTAPSVYPLVP", "VL": "MDMRAPAQILGFLLLLFPGTRCDIQMTQSPSSLSASLGERVSLTCRASQDIGSSLNWLQQGPDGTIKRLIYATSSLDSGVPKRFSGSRSGSDYSLTISSLESEDFVDYYCLQYVSSPPTFGAGTKLELKRADAAPTVFIFGRIP"}},
  "key": {"bEnd.3 and ABAE cells": {"system": "bEnd.3 and ABAE cells", "assay": "Binding to cultured endothelial cells and inhibition by liposomes", "type": "cell-based, mouse, bovine", "details": "quiescent conditions", "experimental": "Endothelial cells were grown until they reached approximately 70% confluence. To induce PS exposure, cells were treated with H2O2 (200 μM) for 1 h at 37° C. Control and treated slides were washed with DPBS containing Ca^2+ and Mg^2+ and fixed with 0.25% of glutaraldehyde diluted in the same buffer. Excess aldehyde groups were quenched by incubation with 50 mM of NH4Cl for 5 min. To examine the effect of detergents and organic solvents on detection of phospholipids, some slides were pre-incubated with acetone (5 min) or with PBS containing 1% (v/v) Triton™ X-100.\nCells were washed with DPBS (containing Ca^2+, Mg^2+ and 0.2% (w/v) gelatin) and incubated with 1 μg/ml of biotinylated annexin V (Pharmingen, San Diego, Calif.) or with 1 μg/ml of 9D2 antibody. After 2 h of incubation, cells were washed with 0.2% gelatin buffer and were incubated with streptavidin-HRP (1:500 dilution). […] HRP activity was measured by adding O-phenylenediamine (0.5 mg/ml) and hydrogen peroxide (0.03% w/v) in citrate-phosphate buffer, pH 5.5. After 15 min, 100 μl of supernatant were transferred to 96 well plates, 100 μl of 0.18 M H2SO4 were added and the absorbance was measured at 490 nm. Alternatively, PS-positive cells were detected by addition of carbazole substrate, resulting in insoluble red-brownish precipitate. […]"}, "L540 Hodgkin tumors": {"system": "L540 Hodgkin tumors", "assay": "Annexin V inhibition of coaguligand-induced thrombosis in vivo", "design": "species or system mouse", "experimental": "The ability of Annexin V to inhibit coaguligand-induced thrombosis in vivo was examined in L540 Hodgkin-bearing SCID mice. Tumors were grown in mice and two mice per group (tumor size 0.5 cm in diameter) were injected intravenously via the tail vein with one of the following reagents: a) saline; b) 100 μg of Annexin V; c) 40 μg of anti-VCAM-1·tTF; d) 100 μg of Annexin V followed 2 hours later by 40 μg of anti-VCAM-1·tTF.\nFour hours after the last injection mice were anesthetized and perfused with heparinized saline. Tumors were removed, fixed with 4% formalin, paraffin-embedded and stained with hematoxylene-eosin. The number of thrombosed and non-thrombosed blood vessels was counted and the percentage of thrombosis was calculated."}, "hβ2GPI domains": {"system": "hβ2GPI domains", "assay": "ELISA on recombinant hβ2GPI domain constructs", "type": "binding, human", "details": "constructs I-V, II-V, III-V, IV-V", "experimental": "The assay was performed as described above with the following modifications. hβ2GPI, nicked hβ2GPI, or recombinant hβ2GPI peptides were coated on 96-well Immunlon 2HB microtiter plates overnight at a concentration of 10 μg/ml. Plates were then blocked in 1% OVA for 1 hr. at room temperature. […] Plates were incubated for 1 hr. at 37° C. and antibody binding was detected. All ELISA studies were performed at least three times.\nβ2GPI has five domains, of which the fifth domain is responsible for binding to anionic phospholipids. […] These domain constructs were made by serial truncations from the N-terminus, and so lack each of the N-terminal domains in turn, as follows: recombinant full-length hβ2GPI contains domains I-V; hβ2GPI from which domain I has been deleted contains domains II-V; hβ2GPI from which domains I and II have been deleted contains domains III-V; hβ2GPI from which domains I, II and III have been deleted contains domains IV-V; and hββ2GPI from which domains I, II, III and IV have been deleted contains domain V only."}, "[1]": {"system": "orthotopic MDA-MB-435 and MDA-MB-231 tumors", "assay": "Macrophage infiltration during 3G4 tumor treatment", "type": "in vivo, mouse", "details": "100 μg i.p. three times a week for 2-3 weeks", "experimental": "Groups of 8-10 female SCID mice were injected subcutaneously with 2×10^7 L540 cells or orthotopically with 1×10^7 MDA-MB-435 or MDA-MB-231 cells. BALB/c mice were injected subcutaneously with 1×10^6 Meth A cells. Tumors were allowed to grow to an average diameter of 0.8-1 cm (L540), 0.6-0.7 cm (MDA-MB-435), 0.5-0.7 cm (MDA-MB-231), or <0.1 cm (Meth A). […] Animals were monitored three times a week for tumor size and body weight. Mice were sacrificed when tumors in control mice reached a diameter of 1.5-2 cm."}, "[2]": {"assay": "3G4 reactivity with plastic-immobilized phospholipids and liposome competition", "type": "binding", "experimental": "Phospholipids were dissolved in n-hexane to a concentration of 50 μg/ml. 100 μl of this solution was added to wells of 96-well microtiter plates. After evaporation of the solvent in air, the plates were blocked for 2 h with 10% FBS diluted in DPBS containing 2 mM Ca^2+ (binding buffer). […] Serial two-fold dilutions were prepared in the plates (100 μl per well). The plates were then incubated for 2 hr. at room temperature. […] Secondary reagents were detected by using chromogenic substrate OPD followed by reading plates at 490 nm using a microplate reader (Molecular Devices, Palo Alto, Calif.).\nSpecificity of phospholipid recognition was further confirmed by competition assays with various liposomes. […] The solutions were dried under nitrogen to form a thin layer in a round-bottomed glass flask. 10 ml of Tris buffer (0.1 M, pH 7.4) were then added and the flask was sonicated five times for 2 min. […] The mixture was added to phospholipid-coated plates.\nLiposomes were prepared from solutions of 5 mg of a single phospholipid in chloroform. The solutions were dried under nitrogen to form a thin layer in a round-bottomed glass flask. Ten ml of Tris buffer (0.1 M, pH 7.4) were then added and the flask was sonicated five times for 2 min. […] The mixture was added to PS-coated plates (after standard blocking), incubated for 1 hour, washed and the secondary antibody added. After 1 hour, the plates were washed and developed for 5 minutes using OPD."}},
  "note": "Entries after “also recorded” stand apart in the source; their conditions may differ.",
  "data": [
    {"molecule": "Annexin V: High affinity PS binding ligand; natural ligand binding anionic phospholipids and PE", "values": [
      {"measurement": "binding to non-permeabilized monolayers", "setting": "bEnd.3 and ABAE cells", "value": "Neither 9D2 nor annexin V bound"},
      {"measurement": "coaguligand-induced intravascular thrombosis and changes in tumor cell morphology", "setting": "L540 Hodgkin tumors; 100 μg Annexin V 2 hours before 40 μg coaguligand", "value": "completely abolished"},
      {"measurement": "tumor morphology", "setting": "L540 Hodgkin tumors; 100 μg Annexin V alone", "value": "did not alter tumor morphology"}
    ]},
    {"molecule": "B1", "values": [
      {"measurement": "β2GPI domain recognized", "setting": "hβ2GPI domains", "value": "binds to β2GPI at domain II"},
      {"measurement": "leukocyte binding and infiltration", "setting": "[1]", "value": "caused mononuclear leukocytes to bind to the tumor vascular endothelium and infiltrate into the tumor interstitium"},
      {"measurement": "binding to neutral phospholipids (PE, PC and SM) in ELISA", "setting": "[2]", "value": "does not bind"},
      {"measurement": "binding to anionic phospholipid-coated plates", "setting": "[2]; 1 mg/ml human β2-glycoprotein I, no serum", "value": "Full binding was restored"},
      {"measurement": "effect of EDTA on binding", "setting": "[2]; 5 mM EDTA", "value": "unaffected"},
      {"measurement": "reduction of binding to anionic phospholipid-coated plates", "setting": "[2]; absence of serum", "value": 90, "unit": "%"},
      {"measurement": "competition by phospholipid liposomes", "setting": "[2]; liposomes of single phospholipids", "value": "blocked by liposomes prepared from PS, PA, PI and CL; also recorded: blocked by liposomes prepared from anionic phospholipids"}
    ]}
  ]
}
